Data taken from US20180312587A1 (ADURO BIOTECH HOLDINGS EUROPE B V, published 2018).
One block for each binder: values may come before it.

How the values were obtained:
human SIRPβ1 = molecular target: T1, human SIRPβ1 (human, UniProt O00241 30-398); experiment: CELISA, CHO-K1 transfectants; average of two experiments
T1 construct: also called hSIRPβ1
Method: The binding specificity of antibody hSIRPα.50A to hSIRPα was compared antibody KWAR23 (Canadian Patent 2939293 A1), in a CELISA format. CHO-K1 cells were transiently transfected with hSIRPαV1, hSIRPαV2, hSIRPβ1, and hSIRPγ (GenBank accession: NM_018556.3) (SEQ ID NO: 39) cDNAs. Subsequently, hSIRPα binding was assessed by CELISA using CHO-K1.hSIRPαV1, CHO-K1.hSIRPαV2, CHO-K1.hSIRPβ1, and CHO-K1.hSIRPγ cells. Detection of bound antibody was performed with goat-anti-mouse IgG-HRP (Southern Biotech) for mouse antibodies including hSIRPα.50A and control antibodies or, alternatively, with goat-anti-human IgG-HRP conjugate (Jackson Immuno Research) for the KWAR23 antibody. KWAR23 (SEQ ID NO: 130; SEQ ID NO: 131) was expressed as a chimeric human IgG4 kappa antibody in CHO cells. As shown in FIG. 2 and the following Table 9, KWAR23 antibody cross-reacts with all members of the SIRP receptor family tested: it binds to hSIRPαV1, hSIRPαV2, hSIRPβ1, and hSIRPγ.

[1] = molecular target: T2, hSIRPα expressed on primary human cells (human, UniProt P78324 31-504); experiment: flow cytometry on CD14+ enriched monocytes, human donor 1, AF647 goat-anti-mouse IgG
T2 construct: whole, on cells; also called hSIRPα on primary human CD14+ monocytes; on primary human granulocytes
T2 sequence (P78324 31-504): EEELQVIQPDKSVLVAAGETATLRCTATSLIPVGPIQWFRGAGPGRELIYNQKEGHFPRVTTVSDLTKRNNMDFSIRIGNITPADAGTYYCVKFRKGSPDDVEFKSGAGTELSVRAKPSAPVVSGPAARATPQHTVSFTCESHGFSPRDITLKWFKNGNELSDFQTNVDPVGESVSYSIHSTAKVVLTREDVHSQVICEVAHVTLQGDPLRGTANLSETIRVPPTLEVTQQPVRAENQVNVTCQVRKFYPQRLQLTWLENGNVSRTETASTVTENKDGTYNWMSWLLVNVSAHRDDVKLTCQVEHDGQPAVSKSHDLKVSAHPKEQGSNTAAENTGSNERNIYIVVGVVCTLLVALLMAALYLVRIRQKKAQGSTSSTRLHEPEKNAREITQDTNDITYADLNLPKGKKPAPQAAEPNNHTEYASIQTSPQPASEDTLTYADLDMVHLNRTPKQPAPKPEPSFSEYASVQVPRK
Method: (§1) Next, the binding of hSIRPα.40A to hSIRPα expressed on primary human CD14⁺ monocytes was investigated. In addition, the ability of hSIRPα.40A to block the interaction between hSIRPα and recombinant hCD47/Fc-protein was assessed. For this purpose, CD14+ monocytes were isolated from Ficoll-purified human peripheral blood mononuclear cells (PBMCs) using RosetteSep human monocyte enrichment cocktail (Stemcell). The percentage of monocytes present after the enrichment was determined by flow cytometry on the FACSVerse (BD Biosciences) based on CD14 staining using an APC-Cy7-conjugated mouse-anti-human CD14 detection antibody (BD Biosciences). […] After this labeling procedure, cells were washed two times, resuspended in PBS/1% BSA containing 0.1 μg/mL DAPI (BioLegend), and analysed by flow cytometry on the FACSVerse (BD Biosciences). Data were processed and analysed with FlowJo V10 software (FlowJo, LLC).
(§2) To assess the blocking ability of hSIRPα.40A, CD14+ enriched monocytes cells were seeded in 96-well round bottomed tissue culture plates and incubated for 45 minutes with FcR Blocking Reagent (Miltenyi Biotec) and hSIRPα.40A antibody (20 μg/mL and dilutions thereof) in PBS/1% BSA at 4° C. […] After this labeling procedure, cells were washed two times, resuspended in PBS/1% BSA containing 0.1 μg/mL DAPI (BioLegend), and analysed by flow cytometry on the FACSVerse (BD Biosciences). […]

[2] = molecular target: T2, hSIRPα expressed on primary human cells; experiment: flow cytometry on CD14+ enriched monocytes, human donor 2, AF647 goat-anti-mouse IgG
Method: as §1, §2

hSIRP-VγC1βC2β = molecular target: T3, hSIRP-VγC1βC2β (human, UniProt O00241 30-398); experiment: CELISA, CHO-K1 transfectants, domain exchange study
T3 chain: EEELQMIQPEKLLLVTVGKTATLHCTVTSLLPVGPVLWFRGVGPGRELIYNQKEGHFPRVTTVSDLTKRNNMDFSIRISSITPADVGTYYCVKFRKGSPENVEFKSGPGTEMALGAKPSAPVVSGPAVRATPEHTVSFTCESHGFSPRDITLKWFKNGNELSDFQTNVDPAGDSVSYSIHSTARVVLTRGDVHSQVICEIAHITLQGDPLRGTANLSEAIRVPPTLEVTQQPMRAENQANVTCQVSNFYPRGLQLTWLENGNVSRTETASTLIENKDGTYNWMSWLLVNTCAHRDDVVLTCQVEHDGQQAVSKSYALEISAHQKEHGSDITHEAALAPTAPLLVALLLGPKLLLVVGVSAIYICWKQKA
Source text: Based on the fold of SIRPα/β1/γ, the extracellular region can be subdivided into three separate domains: the Ig-like (immunoglobulin-like) V-type (IgV), Ig-like C1-type (IgC1), and Ig-like C2-type (IgC2) domain. The IgV domain is also known as the ligand-binding N-terminal domain of SIRPα and SIRPγ (which binds to CD47). The human SIRPβ1/γ mutants were designed based on the full length hSIRPβ1 sequence (SEQ ID NO: 38) and each individual Ig-like domain was substituted for the equivalent domain of human SIRPγ (SEQ ID NO: 40). […] Binding of hSIRPα.40A to the exchange mutants was tested using CELISA. To this end, CHO-K1 cells were transiently transfected, using Lipofectamine 2000, with the pCI-neo vectors encoding hSIRPαV1, hSIRPαV2, hSIRPβ1, hSIRP-VγC1βC2β, hSIRP-VβC1γC2β, and hSIRP-VβC1βC2γ, respectively. The transfected cells were cultured at 37° C., 5% CO₂ and 95% humidity in medium (DMEM-F12 (Gibco) with 5% New Born Calf serum (Biowest) and Pen/Strep (Gibco)) until confluent. Subsequently, cells were trypsinized and seeded in 96-well flat-bottom tissue culture plates and cultured at 37° C., 5% CO₂ and 95% humidity in culture medium until confluent. Then, culture medium was removed and cells were incubated for 1 hour at 37° C., 5% CO₂ and 95% humidity with hSIRPα.40A, hSIRPα.50A, and anti-hSIRPα clone SE5A5 antibodies. Next, cells were washed with PBS-T and incubated for 1 hour at 37° C., 5% CO₂ and 95% humidity with goat-anti-mouse IgG-HRP conjugate (Southern Biotech). After that, cells were washed three times with PBS-T and anti-hSIRPα immunoreactivity was visualized with TMB Stabilized Chromogen (Invitrogen). Reactions were stopped with 0.5 M H₂SO₄ and absorbances were read at 450 and 610 nm.

T1 sequence (O00241 30-398 limits assumed): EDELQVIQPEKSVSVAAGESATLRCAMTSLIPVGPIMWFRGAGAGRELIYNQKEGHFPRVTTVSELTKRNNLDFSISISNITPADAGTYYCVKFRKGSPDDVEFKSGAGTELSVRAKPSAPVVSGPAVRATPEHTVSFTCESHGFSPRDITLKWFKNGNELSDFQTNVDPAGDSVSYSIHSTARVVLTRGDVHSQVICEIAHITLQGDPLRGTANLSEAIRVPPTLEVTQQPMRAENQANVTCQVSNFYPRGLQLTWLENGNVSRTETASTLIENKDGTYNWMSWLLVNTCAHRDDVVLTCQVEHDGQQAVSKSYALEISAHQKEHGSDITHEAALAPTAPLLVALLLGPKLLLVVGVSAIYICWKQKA

EC50 (human SIRPβ1): 0.161 nM
B1: KWAR23 (antibody, V domains shown)
VH: EVQLQQSGAELVKPGASVKLSCTASGFNIKDYYIHWVQQRTEQGLEWIGRIDPEDGETKYAPKFQDKATITADTSSNTAYLHLSSLTSEDTAVYYCARWGAYWGQGTLVTVSS
VL: QIVLTQSPAIMSASPGEKVTLTCSASSSVSSSYLYWYQQKPGSSPKLWIYSTSNLASGVPARFSGSGSGTSYSLTISSMEAEDAASYFCHQWSSYPRTFGAGTKLELK

EC50 (read off the curve) [1]: ~1 nM | EC50 (read off the curve) [2]: ~0.7 nM
B2: hSIRPα.40A (antibody, mouse IgG1, kappa, V domains shown)
VH: EVQFQQSGTVLARPGTSVKMSCKASGSTFTSYWMHWVKQGPGQGLQWIGAIYPVNNDTTYNQKFKGKAELTVVTSTSTAYMEVSSLTNEDSAVYYCTRSFYYSLDAAWFVYWGQGTLVTVSA
VL: DIQMTQSPSSLSASLGERVSLTCRASQDIGSRLNWLQQEPDGTIKRLIYATSSLDSGVPKRFSGSRSGSDYSLTISGLESEDFVDYYCLQYASSPFTFGGGTKLEINR
notes: mouse antibody, full chains without signal peptide; also called mouse hSIRPα.40A

EC50 (hSIRP-VγC1βC2β): 2.52 nM
B3: hSIRPα.50A (antibody, V domains shown)
VH: QVQLQQSGPELVKPGASVRISCKASGFTFTNYYIHWVKQRPGQGLEWIGWIYPGNVNTKYNEKFKAKATLTADKSSTTAYMQLSSLASEDSAVYFCARPTIIATDFDVWGAGTTVTVSS
VL: DIVMTQSHKFMSTSVGDRVNITCKASQGVGTAVGWYQQKPGQSPRLLIYWASTRHTGVPDRFTGSGSGTDFSLAISNVQSEDLADYFCQQYSTYPFTFGGGTNLEIK
notes: light chain constant domain not tied; also called mouse hSIRPα.50A; hSIRPα.50A.mIgG1
